Results on seven molecules are retold here after article PMC12527940, “Conformational plasticity of a BiP–GRP94 chaperone complex” (Nature Structural & Molecular Biology, 2025).

Data set [1] addresses His6-tagged BiP (residues 27–655) (UniProt P20029). Briefly: pull-down; Ni-NTA pull-down of His6-tagged BiP protein (4 µM) with 4 µM Strep-tagged or untagged GRP94 protein; 60 min at 37 °C, 50 mM HEPES pH 7.5, 50 mM NaCl, 2 mM MgCl2, 50 µM ATP, 3 µM BSA; Coomassie bands quantified.
Data set [2] addresses Strep–linker–TEV site–GRP94 (73–802) (UniProt P08113). Briefly: negative-stain EM; 16 µM BiP and 32 µM HT2 reacted with 32 µM HyT36, 30 min at 37 °C with 50 µM ATP, then 16 µM GRP94 Δ72; GraFix (5–45% glycerol, 0.5% glutaraldehyde), fraction 12; single-particle negative stain, models fitted with Rosetta at 20 Å.
Data set [3] addresses BiP-E243K (UniProt P20029). Description: pull-down; Ni-NTA pull-down of His6-tagged BiP protein (4 µM) with 4 µM Strep-tagged or untagged GRP94 protein; 60 min at 37 °C, 50 mM HEPES pH 7.5, 50 mM NaCl, 2 mM MgCl2, 50 µM ATP, 3 µM BSA; Coomassie bands quantified.
Data set [4] concerns the molecule itself. Briefly: cross-linking; XL-MS: DSBU crosslinking (4 µM each), high-molecular-weight SDS–PAGE bands digested and analysed by LC–MS/MS, 5% FDR on residue pairs; GRP94 Δ72^noPT samples with 100 µM PU-WS13.

Several values for one entry are separate records, joined by “and”; a condition that tells them apart may be missing. Equal values may be shown once.

Regarding “GRP94 Δ72^noPT (from UniProt P08113 73-802) (domain or fragment)”, the percent reduction of GRP94 bound, against GRP94 Δ72 with its tag in data set [1] was determined as 65%.
In data set [1], “GRP94-K463E (Strep-tagged GRP94 Δ72 interface I mutant) (from UniProt P08113 73-802) (domain or fragment)” came in with a percent reduction of GRP94 Δ72 copurified, against the wild-type pair of 85%.
Regarding “GRP94-K467E (Strep-tagged GRP94 Δ72 interface I mutant) (from UniProt P08113 73-802) (domain or fragment)”, the percent reduction of GRP94 Δ72 copurified, against the wild-type pair in data set [1] came to 85%.
For “His6-tagged BiP (residues 27–655) (from UniProt P20029 27-655) (natural protein)”, the stoichiometry N (BiP per GRP94 dimer) in data set [2] is 1 and 2.
“Strep-tagged GRP94 Δ72-R116G interface II mutant (from UniProt P08113 73-802) (domain or fragment)” displayed a percent decrease of binding, against GRP94 Δ72 in data set [1] of 30%.
By stoichiometry N is commonly meant a count of units in the complex or per binding partner. For the molecule “Strep–linker–TEV site–GRP94 (73–802) (from UniProt P08113 73-802) (domain or fragment)”, the percent reduction of GRP94 Δ72 copurified, against the wild-type pair in data set [3] was 85%. Besides, the stoichiometry N in data set [2] came to 2.

B1: Strep-tagged GRP94 FL (residues 23–802) (natural protein, mouse (cDNA of C2C12 cells), UniProt P08113 23-802, looked up)
chain: DEVDVDGTVEEDLGKSREGSRTDDEVVQREEEAIQLDGLNASQIRELREKSEKFAFQAEVNRMMKLIINSLYKNKEIFLRELISNASDALDKIRLISLTDENALAGNEELTVKIKCDKEKNLLHVTDTGVGMTREELVKNLGTIAKSGTSEFLNKMTEAQEDGQSTSELIGQFGVGFYSAFLVADKVIVTSKHNNDTQHIWESDSNEFSVIADPRGNTLGRGTTITLVLKEEASDYLELDTIKNLVRKYSQFINFPIYVWSSKTETVEEPLEEDEAAKEEKEESDDEAAVEEEEEEKKPKTKKVEKTVWDWELMNDIKPIWQRPSKEVEEDEYKAFYKSFSKESDDPMAYIHFTAEGEVTFKSILFVPTSAPRGLFDEYGSKKSDYIKLYVRRVFITDDFHDMMPKYLNFVKGVVDSDDLPLNVSRETLQQHKLLKVIRKKLVRKTLDMIKKIADEKYNDTFWKEFGTNIKLGVIEDHSNRTRLAKLLRFQSSHHSTDITSLDQYVERMKEKQDKIYFMAGSSRKEAESSPFVERLLKKGYEVIYLTEPVDEYCIQALPEFDGKRFQNVAKEGVKFDESEKTKESREATEKEFEPLLNWMKDKALKDKIEKAVVSQRLTESPCALVASQYGWSGNMERIMKAQAYQTGKDISTNYYASQKKTFEINPRHPLIRDMLRRIKEDEDDKTVMDLAVVLFETATLRSGYLLPDTKAYGDRIERMLRLSLNIDPEAQVEEEPEEEPEDTSEDAEDSEQDEGEEMDAGTEEEEEETEKESTEKDEL
notes: cloned from C2C12 complementary DNA into pET21d; also called Strep–GRP94 FL; FL GRP94 wild-type protein; source: E. coli BL21(DE3), purified (StrepTrap HP, SEC); not shown: Strep, N-terminal, kept
For the molecule B1, the binding result in data set [4] is given as “binds”. Also, in data set [1], the percent less GRP94 pulled down, against GRP94 Δ72 is 75%.
